Earlier results on 1 substance are cited in article PMC10178616.

The data set deals with AGR2 (Homo sapiens) (UniProt O95994).

Consider AGR2 (from UniProt O95994), for which the Kd (as a rule, the constant that tells how readily two partners part at equilibrium) was 8.83 µM.
